Reference: the supplement of paper PMC10567573

B1: CLINT1 (parent)
chain: VVTSAREHIYDLRSLENYHFVDEH
B2: PPEF2 (parent)
chain: AFKAAALIQRWYRRYVARLEMRRR

Variants of: B1
Assay: protein stability index of a GFP-peptide fusion (GPS, HEK-293T) (PSI 1-6); higher = more stable
Conditions: c terminus: a fixed tail appended
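Further: lentivirally expressed fusions sorted by FACS into six bins by GFP to DsRed ratio, PSI derived from sequencing read proportions per bin multiplied by bin number.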

Point of comparison: YVTSAREHIYDLRSLENYHFVDEH [V1Y], protein stability index 1.5. Against it:
- VETSAREHIYDLRSLENYHFVDEH [V2E] — higher, 3.67
- VATSAREHIYDLRSLENYHFVDEH [V2A] — higher, 3.34
- VTTSAREHIYDLRSLENYHFVDEH [V2T] — higher, 3.24
- VLTSAREHIYDLRSLENYHFVDEH [V2L] — higher, 3.23
- VGTSAREHIYDLRSLENYHFVDEH [V2G] — higher, 3.34
- VWTSAREHIYDLRSLENYHFVDEH [V2W] — higher, 2.38
- VHTSAREHIYDLRSLENYHFVDEH [V2H] — higher, 3.44
- VCTSAREHIYDLRSLENYHFVDEH [V2C] — higher, 2.9
- VPTSAREHIYDLRSLENYHFVDEH [V2P] — higher, 4.19
- VQTSAREHIYDLRSLENYHFVDEH [V2Q] — higher, 3.53
- VFTSAREHIYDLRSLENYHFVDEH [V2F] — higher, 2.56
- VNTSAREHIYDLRSLENYHFVDEH [V2N] — higher, 3.62
- VITSAREHIYDLRSLENYHFVDEH [V2I] — higher, 2.3
- VYTSAREHIYDLRSLENYHFVDEH [V2Y] — higher, 2.67
- VMTSAREHIYDLRSLENYHFVDEH [V2M] — higher, 3.2
- VKTSAREHIYDLRSLENYHFVDEH [V2K] — higher, 3.01
- VDTSAREHIYDLRSLENYHFVDEH [V2D] — higher, 4.26
- VSTSAREHIYDLRSLENYHFVDEH [V2S] — higher, 3.12
- VRTSAREHIYDLRSLENYHFVDEH [V2R] — higher, 3.13
- AVTSAREHIYDLRSLENYHFVDEH [V1A] — higher, 3.89
- CVTSAREHIYDLRSLENYHFVDEH [V1C] — higher, 2.54
- KVTSAREHIYDLRSLENYHFVDEH [V1K] — higher, 3.45
- PVTSAREHIYDLRSLENYHFVDEH [V1P] — higher, 3.5
- MVTSAREHIYDLRSLENYHFVDEH [V1M] — higher, 2.88
- EVTSAREHIYDLRSLENYHFVDEH [V1E] — higher, 3.96
- QVTSAREHIYDLRSLENYHFVDEH [V1Q] — higher, 3.5
- IVTSAREHIYDLRSLENYHFVDEH [V1I] — higher, 2.67
- DVTSAREHIYDLRSLENYHFVDEH [V1D] — higher, 4.06
- TVTSAREHIYDLRSLENYHFVDEH [V1T] — higher, 3.63
- SVTSAREHIYDLRSLENYHFVDEH [V1S] — higher, 3.68
- GVTSAREHIYDLRSLENYHFVDEH [V1G] — higher, 3.67
- HVTSAREHIYDLRSLENYHFVDEH [V1H] — higher, 3.35
- RVTSAREHIYDLRSLENYHFVDEH [V1R] — higher, 2.92
- FVTSAREHIYDLRSLENYHFVDEH [V1F] — higher, 1.79
- LVTSAREHIYDLRSLENYHFVDEH [V1L] — higher, 2.62
- WVTSAREHIYDLRSLENYHFVDEH [V1W] — higher, 2.47
- NVTSAREHIYDLRSLENYHFVDEH [V1N] — higher, 3.8
- VVTKAREHIYDLRSLENYHFVDEH [S4K] — higher, 2.52
- VVTHAREHIYDLRSLENYHFVDEH [S4H] — higher, 2.82
- VVTNAREHIYDLRSLENYHFVDEH [S4N] — higher, 2.84
- VVTCAREHIYDLRSLENYHFVDEH [S4C] — higher, 1.64
- VVTIAREHIYDLRSLENYHFVDEH [S4I] — higher, 2.1
- VVTMAREHIYDLRSLENYHFVDEH [S4M] — higher, 2.24
- VVTAAREHIYDLRSLENYHFVDEH [S4A] — higher, 2.41
- VVTGAREHIYDLRSLENYHFVDEH [S4G] — higher, 2.73
- VVTLAREHIYDLRSLENYHFVDEH [S4L] — higher, 1.95
- VVTDAREHIYDLRSLENYHFVDEH [S4D] — higher, 3.82
- VVTEAREHIYDLRSLENYHFVDEH [S4E] — higher, 3.04
- VVTFAREHIYDLRSLENYHFVDEH [S4F] — higher, 2.03
- VVASAREHIYDLRSLENYHFVDEH [T3A] — higher, 2.62
- VVDSAREHIYDLRSLENYHFVDEH [T3D] — higher, 3.52
- VVCSAREHIYDLRSLENYHFVDEH [T3C] — higher, 2.29
- VVYSAREHIYDLRSLENYHFVDEH [T3Y] — higher, 2.24
- VVPSAREHIYDLRSLENYHFVDEH [T3P] — higher, 2.99
- VVGSAREHIYDLRSLENYHFVDEH [T3G] — higher, 3.78
- VVWSAREHIYDLRSLENYHFVDEH [T3W] — higher, 2.31
- VVSSAREHIYDLRSLENYHFVDEH [T3S] — higher, 2.89
- VVVSAREHIYDLRSLENYHFVDEH [T3V] — higher, 2.07
- VVMSAREHIYDLRSLENYHFVDEH [T3M] — higher, 2.1
- VVFSAREHIYDLRSLENYHFVDEH [T3F] — higher, 1.98
- VVISAREHIYDLRSLENYHFVDEH [T3I] — higher, 2.04
- VVKSAREHIYDLRSLENYHFVDEH [T3K] — higher, 3.11
- VVNSAREHIYDLRSLENYHFVDEH [T3N] — higher, 2.8
- VVQSAREHIYDLRSLENYHFVDEH [T3Q] — higher, 3.25
- VVESAREHIYDLRSLENYHFVDEH [T3E] — higher, 3.84
- VVLSAREHIYDLRSLENYHFVDEH [T3L] — higher, 2.32
- VVRSAREHIYDLRSLENYHFVDEH [T3R] — higher, 3.09
- VVHSAREHIYDLRSLENYHFVDEH [T3H] — higher, 2.48

Variants of: B2
Assay: as above
Conditions: c terminus: a fixed tail appended

Point of comparison: AFKAAALIQRWYRRYVARLEMRYR [R23Y], protein stability index 1.58. Against it:
- AFKAAALIQRWYRRYVARLEMRER [R23E] — higher, 2.44
- AFKAAALIQRWYRRYVARLEMRPR [R23P] — higher, 2.36
- AFKAAALIQRWYRRYVARLEMRTR [R23T] — higher, 2.25
- AFKAAALIQRWYRRYVARLEMRIR [R23I] — higher, 2.13
- AFKAAALIQRWYRRYVARLEMRHR [R23H] — higher, 2.26
- AFKAAALIQRWYRRYVARLEMRKR [R23K] — higher, 3.58
- AFKAAALIQRWYRRYVARLEMRMR [R23M] — higher, 1.94
- AFKAAALIQRWYRRYVARLEMRGR [R23G] — higher, 2.61
- AFKAAALIQRWYRRYVARLEMRWR [R23W] — higher, 1.98
- AFKAAALIQRWYRRYVARLEMRSR [R23S] — higher, 1.65
- AFKAAALIQRWYRRYVARLEMRLR [R23L] — higher, 2.48
- AFKAAALIQRWYRRYVARLEMRAR [R23A] — higher, 2.81
- AFKAAALIQRWYRRYVARLEMRCR [R23C] — higher, 3.14
- AFKAAALIQRWYRRYVARKEMRRR [L19K] — higher, 4.7
- AFKAAALIQRWYRRYVARNEMRRR [L19N] — higher, 3.12
- AFKAAALIQRWYRRYVARYEMRRR [L19Y] — higher, 2.03
- AFKAAALIQRWYRRYVARCEMRRR [L19C] — higher, 2.48
- AFKAAALIQRWYRRYVARTEMRRR [L19T] — higher, 4.63
- AFKAAALIQRWYRRYVARHEMRRR [L19H] — higher, 3.33
- AFKAAALIQRWYRRYVARVEMRRR [L19V] — higher, 3.42
- AFKAAALIQRWYRRYVARIEMRRR [L19I] — higher, 3.64
- AFKAAALIQRWYRRYVARWEMRRR [L19W] — higher, 2.13
- AFKAAALIQRWYRRYVARPEMRRR [L19P] — higher, 3.63
- AFKAAALIQRWYRRYVARQEMRRR [L19Q] — higher, 3.87
